T1: ligated CheA P1(Q153)/(S154C)P2–5 produced by expressed protein ligation (EPL) (E. coli, UniProt P07363 1-654, S154C)
T1 construct: CheA, E. coli, amplified from genomic DNA of strain BL21; Inteins and CBD of both fragments were removed before ligation; also called ligation product of P1/P2–5; source: fragments expressed in E. coli BL21-CodonPlus (DE3)-RP, purified, ligated in vitro (EPL)
T1 sequence (looked up): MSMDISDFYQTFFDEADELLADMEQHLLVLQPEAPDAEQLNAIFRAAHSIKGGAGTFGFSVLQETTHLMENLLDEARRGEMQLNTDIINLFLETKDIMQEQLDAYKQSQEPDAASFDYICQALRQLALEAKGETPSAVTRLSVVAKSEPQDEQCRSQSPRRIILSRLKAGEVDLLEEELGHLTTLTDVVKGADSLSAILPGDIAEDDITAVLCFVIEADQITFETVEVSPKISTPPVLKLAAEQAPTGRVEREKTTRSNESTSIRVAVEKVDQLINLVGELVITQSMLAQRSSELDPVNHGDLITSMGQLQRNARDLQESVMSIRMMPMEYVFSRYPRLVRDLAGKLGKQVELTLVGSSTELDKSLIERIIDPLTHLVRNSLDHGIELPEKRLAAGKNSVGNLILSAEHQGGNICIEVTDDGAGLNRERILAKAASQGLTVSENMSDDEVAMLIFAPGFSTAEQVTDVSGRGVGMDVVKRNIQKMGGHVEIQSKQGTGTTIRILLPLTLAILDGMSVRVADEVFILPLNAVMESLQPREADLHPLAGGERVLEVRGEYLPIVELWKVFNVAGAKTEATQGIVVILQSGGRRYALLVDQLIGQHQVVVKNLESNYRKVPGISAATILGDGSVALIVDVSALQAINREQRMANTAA

B1: (S154C)P2–5 domains of CheA (domain or fragment, E. coli, UniProt P07363 154-654, looked up)
chain: CRSQSPRRIILSRLKAGEVDLLEEELGHLTTLTDVVKGADSLSAILPGDIAEDDITAVLCFVIEADQITFETVEVSPKISTPPVLKLAAEQAPTGRVEREKTTRSNESTSIRVAVEKVDQLINLVGELVITQSMLAQRSSELDPVNHGDLITSMGQLQRNARDLQESVMSIRMMPMEYVFSRYPRLVRDLAGKLGKQVELTLVGSSTELDKSLIERIIDPLTHLVRNSLDHGIELPEKRLAAGKNSVGNLILSAEHQGGNICIEVTDDGAGLNRERILAKAASQGLTVSENMSDDEVAMLIFAPGFSTAEQVTDVSGRGVGMDVVKRNIQKMGGHVEIQSKQGTGTTIRILLPLTLAILDGMSVRVADEVFILPLNAVMESLQPREADLHPLAGGERVLEVRGEYLPIVELWKVFNVAGAKTEATQGIVVILQSGGRRYALLVDQLIGQHQVVVKNLESNYRKVPGISAATILGDGSVALIVDVSALQAINREQRMANTAA
notes: CheA P2–5 domains, E. coli, amplified from genomic DNA of strain BL21, residues S154 to A654 with cysteine at the N-terminus; also called unreacted (S154C)P2–5; unreacted P2–5; source: E. coli BL21-CodonPlus (DE3)-RP, purified (chitin beads, intein cleavage); not shown: CBD-Ssp DnaB intein, N-terminal, cleaved
B2: ligated CheA P1(Q153G)/(S154C)P2–5 produced by expressed protein ligation (EPL) (enzyme, E. coli, UniProt P07363 1-654, looked up)
chain: T1 sequence (looked up) with Q153G
notes: CheA, E. coli, amplified from genomic DNA of strain BL21; P1 fragment was made as a C-terminal Mxe GyrA intein-CBD fusion and P2–5 as an N-terminal CBD-Ssp DnaB intein fusion (pTWIN1); both inteins were removed before ligation; NMR samples were [2H,15N]-labeled in P1; UniProt entry is of strain K-12; the DNA was from strain BL21; also called Q153G/S154C dimer; ligated product
B3: ligated CheA P12^(2)/^(5)P3–5 produced by protein trans-splicing (PTS) in vivo (enzyme, E. coli)
chain: T1 sequence (looked up) with C154S, K239G, L240S, A241C, A242F, E243N, Q244G, A245T
notes: CheA P12 domains, E. coli, amplified from genomic DNA of strain BL21, residues 1–238; stands instead of KLAAEQA of the P2-P3 linker; CheA P3–5 domains, E. coli, amplified from genomic DNA of strain BL21, residues 246–654; H6-Smt3 was removed with Ulp1; results and methods give a different order of SEC and tag removal, so its state at the SEC is open; P12 part [2H,15N]-labeled in the NMR sample; …

In data set [1] the target is T1, ligated CheA P1(Q153)/(S154C)P2–5 …. As to the kind of experiment: co-purification (SEC, then separation by anion exchange chromatography); EPL reaction mixture of purified fragments; Superdex 200, then ResourceQ in TEDG buffer with a 0–500 mM NaCl gradient; heterodimer separated from the ligated homodimer. Particulars: both partners purified.
Data set [2] addresses B2. The data set is described as above. Particulars: both partners purified.
Data set [3] deals with the molecule itself. As to the kind of experiment: SEC; HiLoad 16/60 Superdex 200 prep grade, TEDG buffer (50 mM Tris pH 7.5, 0.5 mM EDTA, 2 mM DTT, 10% glycerol) with 150 mM NaCl; elution volume compared with immunoglobulin G (158 kDa). Background: Size exclusion chromatography separates by hydrodynamic size, large species first.

Changes are numbered by the printed parent chain. In names and notes the source's numbering stands.

B1: the binding result in data set [1] and in data set [2] was “binds” in each case. As a reminder, the stoichiometry N is a count of units in the complex or per binding partner. As for B2, the “stoichiometry N” value in data set [3] is 2. Still for that read-out and setting: the same measure for B3: 2.

(Values after paper PMC3405243, “Segmental isotopic labeling of a 140 kDa dimeric multi-domain protein CheA from Escherichia coli by expressed protein ligation and protein trans-splicing” (Journal of Biomolecular Nmr, 2012).)
